According to publication PMC12197075, “Identification of the Glyceraldehyde-3-Phosphate Dehydrogenase (GeGAPDH) Gene Family in Gastrodia elata Revealing Its Response Characteristics to Low-Temperature and Pathogen Stress” (Plants, 2025):

Substrate: O=C[C@H](O)COP(=O)(O)O
Assay: purified protein
Settings: phosphorylation direction, 0.6 mM NAD+, 50 mM triethanolamine, 50 mM sodium phosphate (printed 'bisphosphate'), 0.2 mM EDTA, 25 °C, pH not stated, G3P 0.25-5 mM

B1: GeGAPDH1 (Gastrodia elata) (protein)
chain: MASTAFVGSVTPLSEASFPFASSTRAPEPFRVFCWRSRSSEGSSVLCASTSCSKFPLAAISTQKSNRRNFQHTKATATETPPVVSRSSSDGKTKVGINGFGRIGRLVLRIAASRDDIEVVAVNDPFVDAKYMAYMFKYDSTHGTFKGTIKVVDESTIEIDGKRIAVTSKRDPSEITWSDFGAEYVVESSGVFTTMDKASAHLKGGAKKVVISAPSADAPMFVVGVNEQMYQPHMNIVSNASCTTNCLALLAKVVHEEFGIVEGLMTTVHATTATQKTVDGPSMKDWRGGRGASQNIIPSSTGAAKAVGKVLPELNGKLTGMAFRVPTTNVSVVDLTCRLANDASYEDVKAAVRAASEGCLKGILGYTDEDVVSNDFIGDSRSSIFDAKAGIGLGTNFMKLVSWYDNEWGYSNRVLDLIQHVARVCAHK
- Km: 312 µM
